# System: KDM4A-I71AzF
# Experiment: CASI: photo-crosslinking with HEK293T cell extracts, StrepTactin enrichment and LC-MS/MS proteomics;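 also: lysates from HEK293T cells pretreated with a KDM4 inhibitor to raise proteome methylation, affinity-purified after ±UV, gel-resolved, trypsin-digested, with exclusive unique peptides per protein averaged per condition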
# Type: binding, human
# Details: sheet "Final results but with 0.01"
row,Molecule,Fold change (+UV/-UV)
1,"DDX17_HUMAN (protein, UniProt Q92841 1-729, looked up) Probable ATP-dependent RNA …: MPTGFVAPILCVLLPSPTREAATVASATGDSASERESAAPAAAPTAEAPPPSVVTRPEPQALPSPAIRAPLPDLYPFGTMRGGGFGDRDRDRDRGGFGARGGGGLPPKKFGNPGERLRKKKWDLSELPKFEKNFYVEHPEVARLTPYEVDELRRKKEITVRGGDVCPKPVFAFHHANFPQYVMDVLMDQHFTEPTPIQCQGFPLALSGRDMVGIAQTGSGKTLAYLLPAIVHINHQPYLERGDGPICLVLAPTRELAQQVQQVADDYGKCSRLKSTCIYGGAPKGPQIRDLERGVEICIATPGRLIDFLESGKTNLRRCTYLVLDEADRMLDMGFEPQIRKIVDQIRPDRQTLMWSATWPKEVRQLAEDFLRDYTQINVGNLELSANHNILQIVDVCMESEKDHKLIQLMEEIMAEKENKTIIFVETKRRCDDLTRRMRRDGWPAMCIHGDKSQPERDWVLNEFRSGKAPILIATDVASRGLDVEDVKFVINYDYPNSSEDYVHRIGRTARSTNKGTAYTFFTPGNLKQARELIKVLEEANQAINPKLMQLVDHRGGGGGGGGRSRYRTTSSANNPNLMYQDECDRRLRGVKDGGRRDSASYRDRSETDRAGYANGSGYGSPNSAFGAQAGQYTYGQGTYGAAAYGTSSYTAQEYGAGTYGASSTTSTGRSSQSSSQQFSGIGRSGQQPQPLMSQQFAQPPGATNMIGYMGQTAYQYPPPPPPPPPSRK",1
2,"GCSP_HUMAN (protein, UniProt P23378 36-1020, looked up) Glycine dehydrogenase …: DSSSGGGDSAAAGASRLLERLLPRHDDFARRHIGPGDKDQREMLQTLGLASIDELIEKTVPANIRLKRPLKMEDPVCENEILATLHAISSKNQIWRSYIGMGYYNCSVPQTILRNLLENSGWITQYTPYQPEVSQGRLESLLNYQTMVCDITGLDMANASLLDEGTAAAEALQLCYRHNKRRKFLVDPRCHPQTIAVVQTRAKYTGVLTELKLPCEMDFSGKDVSGVLFQYPDTEGKVEDFTELVERAHQSGSLACCATDLLALCILRPPGEFGVDIALGSSQRFGVPLGYGGPHAAFFAVRESLVRMMPGRMVGVTRDATGKEVYRLALQTREQHIRRDKATSNICTAQALLANMAAMFAIYHGSHGLEHIARRVHNATLILSEGLKRAGHQLQHDLFFDTLKIQCGCSVKEVLGRAAQRQINFRLFEDGTLGISLDETVNEKDLDDLLWIFGCESSAELVAESMGEECRGIPGSVFKRTSPFLTHQVFNSYHSETNIVRYMKKLENKDISLVHSMIPLGSCTMKLNSSSELAPITWKEFANIHPFVPLDQAQGYQQLFRELEKDLCELTGYDQVCFQPNSGAQGEYAGLATIRAYLNQKGEGHRTVCLIPKSAHGTNPASAHMAGMKIQPVEVDKYGNIDAVHLKAMVDKHKENLAAIMITYPSTNGVFEENISDVCDLIHQHGGQVYLDGANMNAQVGICRPGDFGSDVSHLNLHKTFCIPHGGGGPGMGPIGVKKHLAPFLPNHPVISLKRNEDACPVGTVSAAPWGSSSILPISWAYIKMMGGKGLKQATETAILNANYMAKRLETHYRILFRGARGYVGHEFILDTRPFKKSANIEAVDVAKRLQDYGFHAPTMSWPVAGTLMVEPTESEDKAELDRFCDAMISIRQEIADIEEGRIDPRVNPLKMSPHSLTCVTSSHWDRPYSREVAAFPLPFVKPENKFWPTIARIDDIYGDQHLVCTCPPMEVYESPFSEQKRASS",6
3,"U2AF2_HUMAN (protein, UniProt P26368 2-475, looked up) Splicing factor U2AF 65 kDa …: SDFDEFERQLNENKQERDKENRHRKRSHSRSRSRDRKRRSRSRDRRNRDQRSASRDRRRRSKPLTRGAKEEHGGLIRSPRHEKKKKVRKYWDVPPPGFEHITPMQYKAMQAAGQIPATALLPTMTPDGLAVTPTPVPVVGSQMTRQARRLYVGNIPFGITEEAMMDFFNAQMRLGGLTQAPGNPVLAVQINQDKNFAFLEFRSVDETTQAMAFDGIIFQGQSLKIRRPHDYQPLPGMSENPSVYVPGVVSTVVPDSAHKLFIGGLPNYLNDDQVKELLTSFGPLKAFNLVKDSATGLSKGYAFCEYVDINVTDQAIAGLNGMQLGDKKLLVQRASVGAKNATLVSPPSTINQTPVTLQVPGLMSSQVQMGGHPTEVLCLMNMVLPEELLDDEEYEEIVEDVRDECSKYGLVKSIEIPRPVDGVEVPGCGKIFVEFTSVFDCQKAMQGLTGRKFANRVVVTKYCDPDSYHRRDFW",2
